Data on 38 molecules can be found in article PMC10786891, “Massively parallel profiling of RNA-targeting CRISPR-Cas13d”.

Sequences and labels used below:
T1: EsCas13d, nuclease-dead (Eubacterium siraeum, UniProt B0MS50, R295A;H300A;R849A;H854A)
T1 sequence: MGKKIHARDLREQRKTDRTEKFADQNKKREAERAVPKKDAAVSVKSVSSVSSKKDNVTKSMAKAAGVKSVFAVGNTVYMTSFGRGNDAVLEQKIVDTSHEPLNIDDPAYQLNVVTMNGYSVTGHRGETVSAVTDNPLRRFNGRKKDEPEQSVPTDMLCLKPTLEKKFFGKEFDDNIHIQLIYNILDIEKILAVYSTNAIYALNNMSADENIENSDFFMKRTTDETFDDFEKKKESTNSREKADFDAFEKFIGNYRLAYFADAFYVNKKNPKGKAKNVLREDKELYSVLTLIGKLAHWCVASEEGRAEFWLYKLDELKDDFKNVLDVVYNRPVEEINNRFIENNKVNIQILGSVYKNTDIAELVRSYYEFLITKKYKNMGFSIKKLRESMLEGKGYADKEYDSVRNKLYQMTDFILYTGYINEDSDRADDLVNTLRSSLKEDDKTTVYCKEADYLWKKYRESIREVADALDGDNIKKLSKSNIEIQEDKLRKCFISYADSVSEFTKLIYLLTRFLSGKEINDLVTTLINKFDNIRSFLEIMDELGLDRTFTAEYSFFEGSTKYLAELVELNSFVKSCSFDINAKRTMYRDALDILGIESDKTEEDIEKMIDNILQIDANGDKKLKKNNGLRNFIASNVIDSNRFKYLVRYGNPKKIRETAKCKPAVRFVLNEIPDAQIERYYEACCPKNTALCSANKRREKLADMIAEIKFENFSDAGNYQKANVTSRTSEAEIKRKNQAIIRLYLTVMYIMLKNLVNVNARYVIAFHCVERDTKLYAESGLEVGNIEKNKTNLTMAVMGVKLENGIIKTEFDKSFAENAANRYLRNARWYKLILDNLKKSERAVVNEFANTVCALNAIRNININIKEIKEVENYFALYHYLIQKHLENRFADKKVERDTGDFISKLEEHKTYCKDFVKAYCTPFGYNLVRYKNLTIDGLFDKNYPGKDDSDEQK

B1: target 1 MT 5'PFS CUU 3'PFS CUA (mixed)
RNA 1: CACCCGUGCAAAAAUGCAGGGGUCUAAAACUGAGCGGAUAACCUCUCUAUGG
RNA 2: GGGAAUGGAUCCACAUCUACGAAUUCCUUCCAUAGAGAGGUUAUCCGCUCACUAAGAUCGGAAGAGCACACGU
B2: target 1 MT 5'PFS GCA 3'PFS UGA (mixed)
RNA 1: B1 RNA 1
RNA 2: B1 RNA 2 with C27G, U28C, U29A, C52U, U53G
B3: target 1 MT 5'PFS CCU 3'PFS ACU (mixed)
RNA 1: B1 RNA 1
RNA 2: B1 RNA 2 with U28C, C52A, U53C, A54U
B4: target 1 MT 5'PFS AGG 3'PFS AGC (mixed)
RNA 1: B1 RNA 1
RNA 2: B1 RNA 2 with C27A, U28G, U29G, C52A, U53G, A54C
B5: target 1 MT 5'PFS CCU 3'PFS ACG (mixed)
RNA 1: B1 RNA 1
RNA 2: B1 RNA 2 with U28C, C52A, U53C, A54G
B6: target 1 insU 3' of 22,insC 3' of 22 (mixed)
RNA 1: B1 RNA 1
RNA 2: GGGAAUGGAUCCACAUCUACGAAUUCGUACUCCAUAGAGAGGUUAUCCGCUCACCGAGAUCGGAAGAGCACACGU
B7: target 1 MT 5'PFS CUG 3'PFS ACU (mixed)
RNA 1: B1 RNA 1
RNA 2: B1 RNA 2 with U29G, C52A, U53C, A54U
B8: target 1 MT 5'PFS GUU 3'PFS UCU (mixed)
RNA 1: B1 RNA 1
RNA 2: B1 RNA 2 with C27G, C52U, U53C, A54U
B9: target 1 MT 5'PFS AAG 3'PFS UGC (mixed)
RNA 1: B1 RNA 1
RNA 2: B1 RNA 2 with C27A, U28A, U29G, C52U, U53G, A54C
B10: target 1 MT 5'PFS GUU 3'PFS AAU (mixed)
RNA 1: B1 RNA 1
RNA 2: B1 RNA 2 with C27G, C52A, U53A, A54U
B11: target 1 MT 5'PFS ACA 3'PFS UUC (mixed)
RNA 1: B1 RNA 1
RNA 2: B1 RNA 2 with C27A, U28C, U29A, C52U, A54C
B12: target 1 MT 5'PFS GUU 3'PFS AAG (mixed)
RNA 1: B1 RNA 1
RNA 2: B1 RNA 2 with C27G, C52A, U53A, A54G
B13: target 1 MT 5'PFS GCA 3'PFS UGC (mixed)
RNA 1: B1 RNA 1
RNA 2: B1 RNA 2 with C27G, U28C, U29A, C52U, U53G, A54C
B14: target 1 MT 5'PFS AGA 3'PFS AUA (mixed)
RNA 1: B1 RNA 1
RNA 2: B1 RNA 2 with C27A, U28G, U29A, C52A
B15: target 1 MT 5'PFS GGU 3'PFS CUA (mixed)
RNA 1: B1 RNA 1
RNA 2: B1 RNA 2 with C27G, U28G
B16: target 1 MT 5'PFS GUU 3'PFS UCG (mixed)
RNA 1: B1 RNA 1
RNA 2: B1 RNA 2 with C27G, C52U, U53C, A54G
B17: target 1 MT 5'PFS GCA 3'PFS UGU (mixed)
RNA 1: B1 RNA 1
RNA 2: B1 RNA 2 with C27G, U28C, U29A, C52U, U53G, A54U
B18: target 1 MT 5'PFS AGG 3'PFS AGG (mixed)
RNA 1: B1 RNA 1
RNA 2: B1 RNA 2 with C27A, U28G, U29G, C52A, U53G, A54G
B19: target 1 MT 5'PFS GUU 3'PFS UCA (mixed)
RNA 1: B1 RNA 1
RNA 2: B1 RNA 2 with C27G, C52U, U53C
B20: target 1 MT 5'PFS GAA 3'PFS UAC (mixed)
RNA 1: B1 RNA 1
RNA 2: B1 RNA 2 with C27G, U28A, U29A, C52U, U53A, A54C
B21: target 1 MT 5'PFS ACA 3'PFS UUA (mixed)
RNA 1: B1 RNA 1
RNA 2: B1 RNA 2 with C27A, U28C, U29A, C52U
B22: target 1 MT 5'PFS AAG 3'PFS UGU (mixed)
RNA 1: B1 RNA 1
RNA 2: B1 RNA 2 with C27A, U28A, U29G, C52U, U53G, A54U
B23: target 1 MT 5'PFS CUG 3'PFS UCC (mixed)
RNA 1: B1 RNA 1
RNA 2: B1 RNA 2 with U29G, C52U, U53C, A54C
B24: target 1 MT 5'PFS GUU 3'PFS AAA (mixed)
RNA 1: B1 RNA 1
RNA 2: B1 RNA 2 with C27G, C52A, U53A
B25: target 1 MT 5'PFS AGA 3'PFS AUC (mixed)
RNA 1: B1 RNA 1
RNA 2: B1 RNA 2 with C27A, U28G, U29A, C52A, A54C
B26: target 1 MT 5'PFS GGC 3'PFS AAC (mixed)
RNA 1: B1 RNA 1
RNA 2: B1 RNA 2 with C27G, U28G, U29C, C52A, U53A, A54C
B27: target 1 MT 5'PFS CUU 3'PFS CUC (mixed)
RNA 1: B1 RNA 1
RNA 2: B1 RNA 2 with A54C
B28: target 1 MT 5'PFS UAU 3'PFS UCU (mixed)
RNA 1: B1 RNA 1
RNA 2: B1 RNA 2 with C27U, U28A, C52U, U53C, A54U
B29: target 1 MT 5'PFS GGC 3'PFS AAU (mixed)
RNA 1: B1 RNA 1
RNA 2: B1 RNA 2 with C27G, U28G, U29C, C52A, U53A, A54U
B30: target 1 MT 5'PFS GUU 3'PFS UCC (mixed)
RNA 1: B1 RNA 1
RNA 2: B1 RNA 2 with C27G, C52U, U53C, A54C
B31: target 1 MT 5'PFS AGG 3'PFS AGA (mixed)
RNA 1: B1 RNA 1
RNA 2: B1 RNA 2 with C27A, U28G, U29G, C52A, U53G
B32: target 1 MT 5'PFS GAA 3'PFS UAU (mixed)
RNA 1: B1 RNA 1
RNA 2: B1 RNA 2 with C27G, U28A, U29A, C52U, U53A, A54U
B33: target 1 MT 5'PFS ACA 3'PFS UUU (mixed)
RNA 1: B1 RNA 1
RNA 2: B1 RNA 2 with C27A, U28C, U29A, C52U, A54U
B34: target 1 MT 5'PFS GAA 3'PFS UAA (mixed)
RNA 1: B1 RNA 1
RNA 2: B1 RNA 2 with C27G, U28A, U29A, C52U, U53A
B35: target 1 U10G,U19C (mixed)
RNA 1: B1 RNA 1
RNA 2: B1 RNA 2 with C27G, U29A, U33C, U42G, U53C, A54G
B36: target 1 G5A,C6A (mixed)
RNA 1: B1 RNA 1
RNA 2: B1 RNA 2 with C27G, U29A, C46A, G47A, U53C, A54G
B37: target 1 MT 5'PFS UAU 3'PFS UCG (mixed)
RNA 1: B1 RNA 1
RNA 2: B1 RNA 2 with C27U, U28A, C52U, U53C, A54G
B38: target 1 MT 5'PFS GGC 3'PFS AAA (mixed)
RNA 1: B1 RNA 1
RNA 2: B1 RNA 2 with C27G, U28G, U29C, C52A, U53A

Residue numbers refer to the chain shown, from its start. Names and notes keep the numbering of the source.

The data set concerns the target T1, EsCas13d, nuclease-dead. Briefly: crRNA (strand 1, pre-loaded); Mg2+; 40 mM Tris-HCl pH 7.5, 150 mM NaCl, 6 mM MgCl2, 1 mM DTT, 0.1% Tween-20, 0.2 mg/ml BSA; 25 C; 10 min per concentration, then washed. The conditions noted are these: tags: His6-TwinStrep-SUMO cleaved; N-terminal SNAP kept (SNAP-Surface 488); label: 3' end held by stalled T7 RNA polymerase.
As usually defined, the Kd is the equilibrium constant for the complex coming apart. Higher therefore signals lower affinity. Take B1: the affinity, expressed as Kd, was 29.5 ± 12.5 nM.
In the case of B2, binding was characterised by a dissociation constant (Kd) of 16.4 ± 2.25 nM.
In the case of B3, the Kd stood at 16.5 ± 5.5 nM.
B4 registered a Kd of approximately 52 nM.
Under B5 stands 21 ± 6 nM; under B6, 31.6 ± 1.2 nM; under B7, 5.55 ± 1.45 nM.
Under B8 stands 12.7 ± 1.4 nM.
Under B9 stands 51.5 ± 25 nM; under B10, 22 ± 4.5 nM; under B11, 12.7 ± 4.2 nM.
In turn, B12 registered an equilibrium dissociation constant (Kd) of 37.5 ± 8.5 nM. Against the preceding molecule, the Kd is about 3-fold higher.
Turning to B13, the affinity, expressed as Kd, was 15.8 ± 2.95 nM.
Molecule B14 yielded a Kd of 45 ± 15 nM.
Under B15 stands 64.5 ± 27.5 nM.
The molecule B16 returned a Kd of 18.5 ± 2.7 nM.
Under B17 stands 35 ± 7.5 nM; under B18, approximately 110 nM.
As to B19, the Kd was 15.6 ± 2.1 nM.
Under B20 stands 40 ± 11 nM; under B21, 8.85 ± 2.9 nM; under B22, 35.5 ± 10.5 nM.
Under B23 stands 4.75 ± 1.1 nM; under B24, 46.5 ± 13.5 nM.
Under B25 stands 49 ± 17 nM; under B26, 39 ± 13.5 nM.
As to B27, the Kd is approximately 15 nM.
Under B28 stands 32 ± 6.5 nM.
B29: the Kd amounted to 44.5 ± 18.5 nM.
Under B30 stands 14.8 ± 3.65 nM; under B31, 37.5 ± 8.5 nM; under B32, 27.5 ± 6 nM.
Under B33 stands 5.35 ± 1.15 nM; under B34, 23 ± 7.5 nM.
In turn, B35 registered a Kd of 48 ± 8 nM. Against the preceding molecule, the Kd is about 2.1-fold higher.
Under B36 stands 5.75 ± 0.22 nM; under B37, 29 ± 7 nM.
For B38, the dissociation constant (Kd) was found to be 52 ± 14 nM.
